Assay results taken from patent publication US7968093B2, “Fully human antibodies directed against the human insulin-like growth factor-1 receptor” (ImClone LLC, priority 2003, dated 2011).

Legend:
[1] = molecular target: IGF-IR (Homo sapiens, UniProt P08069); assay: BIAcore binding kinetics on immobilized soluble IGF-IR; parameters: recombinant extracellular portion of human IGF-IR was used to screen; settings: full IgG, BIACORE 3000
Description: Binding kinetic analysis was performed on 2F8 IgG using a BIAcore unit.
Binding results were determined by human IGF-IR ELISA and represent the concentration of titered antibody necessary to achieve 50% binding relative to saturation. Blocking results represent the level of antibody necessary to inhibit 50% binding of ^125I-IGF-I ligand to immobilized human IGF-IR. Affinity was determined by BIAcore analysis according to manufacturer's specifications (Pharmacia BIACORE 3000). Soluble IGF-IR was immobilized on the sensor chips and antibody binding kinetics determined.

[2] = test system: Akt; assay: IGF-I mediated Akt phosphorylation, western blot; type: cell-based, human; settings: MCF7 cells; IGF-I stimulated; A12 even at 10 nM
Description: To visualize the inhibitory effect of the anti-IGF-IR antibodies on IGF-I signaling, receptor auto-phosphorylation and downstream effector molecule phosphorylation analysis was performed in the presence or absence of antibody A12 or 2F8. The MCF7 human breast cancer cell line was selected for use due to its high IGF-IR density. Cells were plated into 10 cm or 6 well culture dishes and grown to 70-80% confluence. The monolayers were then washed twice in PBS and cultured overnight in serum free defined medium. Anti-IGF-IR antibody was then added in fresh serum-free media (100 nM-10 nM) and incubated cells 30 minutes before addition of ligand (10 nM). Cells were incubated with ligand for 10 minutes, then placed on ice and washed with ice-cold PBS. […] Tyrosine phosphorylated protein was detected on the blot using an anti-p-tyrosine antibody (Cell Signaling #9411) and an anti-mouse-HRP secondary antibody. IGF-IR was detected with monoclonal antibody C-20 (Santa Cruz). For Akt phosphorylation, phospho-Akt was detected with antibody #559029 and total Akt with #559028 (BD Pharmingen). For MAPK phosphorylation, phospho-p44/42 was detected with #9101 and total p44/42 with #9102 (Cell Signaling Tech.). […]

In the case of “A12: fully human IgG1 anti-IGF-IR antibody, lambda light chain; VH SEQ ID NO:2, VL SEQ ID NO:10; affinity matured from 2F8”, the “Affinity Koff” value [1] is reported as “Koff = 3.0 × 10^−5”, the “Affinity Kon” value [1] is reported as “Kon = 7.2 × 10^5” and the Kd ([1]; read-out: Affinity KD) is reported as 0.041 nM. The “inhibition of Akt phosphorylation” value [2] was “significantly inhibited Akt phosphorylation”.
